# Laboratory results from patent publication US20240254259A1 (NATIONAL RESEARCH COUNCIL CANADA, published 2024).
# T1: recombinant human DPEP-1 ectodomain (human, UniProt P16444 17-385, chemically biotinylated with NHS-LC-LC-Biotin in the SPR assay)
# T1 construct: range 17-385; The limits 17-385 are given for the immunogen; also called hDPEP-1 ectodomain; hDPEP-1 ECD
# T1 sequence (looked up): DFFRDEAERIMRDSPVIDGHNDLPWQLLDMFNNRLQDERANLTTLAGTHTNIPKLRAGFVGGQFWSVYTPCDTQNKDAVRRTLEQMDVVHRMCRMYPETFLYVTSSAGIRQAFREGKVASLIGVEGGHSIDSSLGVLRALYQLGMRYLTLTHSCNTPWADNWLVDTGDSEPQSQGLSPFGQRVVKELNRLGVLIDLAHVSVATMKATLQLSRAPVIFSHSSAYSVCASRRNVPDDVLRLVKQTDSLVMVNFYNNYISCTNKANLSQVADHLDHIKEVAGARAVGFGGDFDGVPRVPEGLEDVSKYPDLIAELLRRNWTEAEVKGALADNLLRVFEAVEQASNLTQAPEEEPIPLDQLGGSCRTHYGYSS
# T2: full length human DPEP-1 displayed on HEK293T / HEK293-6E cells (human, UniProt P16444 17-385)
# T2 construct: whole, on cells; GPI-anchored on the cell surface; also called hDPEP-1
# T2 sequence (looked up): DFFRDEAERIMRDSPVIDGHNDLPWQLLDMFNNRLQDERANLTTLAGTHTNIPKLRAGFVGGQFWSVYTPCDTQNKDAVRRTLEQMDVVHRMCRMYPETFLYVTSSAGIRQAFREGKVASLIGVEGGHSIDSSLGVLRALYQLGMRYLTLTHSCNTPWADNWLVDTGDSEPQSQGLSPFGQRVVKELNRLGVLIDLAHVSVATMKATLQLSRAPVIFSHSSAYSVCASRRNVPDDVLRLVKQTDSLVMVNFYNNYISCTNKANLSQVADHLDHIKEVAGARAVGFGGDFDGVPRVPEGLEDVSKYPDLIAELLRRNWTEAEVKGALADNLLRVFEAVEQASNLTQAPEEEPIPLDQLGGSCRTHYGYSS
# How the values were obtained:
# [1] = target: full length human DPEP-1 displayed on HEK293T / HEK293-6E cells (human) (UniProt P16444); experiment: flow cytometry, biotinylated negative control VHH at 100 nM on HEK-293T cells overexpressing human DPEP-1, streptavidin-PE; the same number stands in all seven panels
# [2] = target: T1, recombinant human DPEP-1 ectodomain; experiment: SPR, single-cycle kinetics, biotinylated hDPEP-1 ectodomain captured, VHH flowed; mean ± SD of triplicates
# Protocol: (§1) The binding affinity of DPEP-1-specific VHHs was analyzed by surface plasmon resonance (SPR). Recombinant human DPEP-1 (hDPEP-1) ectodomain was chemically biotinylated using EZ-Link™ NHS-LC-LC-Biotin (Thermo Fisher, Cat #21343) following manufacturer instructions. Biotinylated recombinant hDPEP-1 ectodomain was then captured on CM5 sensorchip surfaces using Biotin CAPture reagent followed by flowing over surfaces VHHs at concentrations ranging from 0.625-10 nM (sdABP02), 2.5-40 nM (sdABP03/05/07), 6.25-100 nM (sdABP06) and 12.5-200 nM (sdABP01/04). Dark lines represent data points, light lines fit to the data. Data were generated in triplicates. Diagonal lines represent equilibrium dissociation constants, KDs. KD values (mean±SD) obtained in FIG. 2A are shown in Table 4. sdABP01 binding data gave poor fit to the 1:1 binding model. As a result, its KD could not be determined with certainty. A better fit was observed using the heterogeneous ligand binding model.
# [3] = target: T2, full length human DPEP-1 displayed on …; experiment: flow cytometry, biotinylated VHH titrated on HEK-293-6E cells overexpressing hDPEP-1
# Protocol: (§2) VHH concentrations at 50% binding, EC₅₀ values, were calculated from graphs and recorded in Table 5.
# (§3) Binding of biotinylated VHHs to hDPEP-1 was detected using streptavidin-phycoerythrin (SPE). The binding profile of the anti-DPEP-1 rabbit pAb (Proteintech, Cat #12222-1-AP) positive control is shown as inset. Binding of the rabbit pAb was detected using goat anti-rabbit IgG antibody conjugated to phycoerythrin (Thermo Fisher, Cat #P-2771MP). Graphs in FIG. 3B with similar maximal fluorescence plateau are grouped together and shown in FIG. 3C (A20.1 VHH is shown for comparison). Three independent experiments were performed and data were collected on a Beckman CytoFLEX Analyzer followed by analysis with FlowJo v10.6.2 (TreeStar). EC₅₀ values were calculated from FIG. 3C and recorded in Table 5. Based on the binding measured by flow cytometry, four affinity groups may be identified: medium (sdABP01/03), high (sdABP02/04/07), high-very high (sdABP05), and very high (sdABP06).
# [4] = target: T1, recombinant human DPEP-1 ectodomain; experiment: SPR single-cycle kinetics; biotinylated h-DPEP1 captured on the chip, VHH flowed over; 1:1 binding model, 25 C; one replicate of three [con't]
# Protocol: (§4) Recombinant human DPEP-1 was biotinylated as described in Example 3 and captured on CM5 sensorchip surfaces using Biotin CAPture reagent followed by flowing over surfaces VHHs at concentrations ranging from 0.625-10 nM (sdABP02), 2.5-40 nM (sdABP03/05/07), 6.25-100 nM (sdABP06) and 12.5-200 nM (sdABP01/04). Dark lines represent data points, light lines fit to the data. Data were generated in triplicates and data for one replicate set are shown.
# as §1
# [5] = target: T2, full length human DPEP-1 displayed on …; experiment: flow cytometry on human DPEP-1-expressing cells, monomeric VHH (Table 8 restating Table 5)
# Protocol: as §2, §3
# [6] = target: T1, recombinant human DPEP-1 ectodomain; experiment: SPR single-cycle kinetics; biotinylated h-DPEP1 captured on the chip, VHH flowed over; 1:1 binding model, 25 C; one replicate of three
# Protocol: as §4, §1
Molecule,Kd [2] [nM],EC50 [3] [nM],Kd [4] [nM],koff [4] [s⁻¹],kon [4] [M⁻¹ s⁻¹],EC50 [5] [nM],Kd [6] [nM],koff [6] [s⁻¹],kon [6] [M⁻¹ s⁻¹],geometric mean fluorescence intensity (number above the histogram) [1]
Clostridium difficile toxin A-specific A20.1 VHH,,,,,,,,,,106
"sdABP03 (VHH with BAP and His6 tags) (VHH, biotin on the Biotinylation Acceptor Peptide in the flow cytometry and immunoprecipitation assays, Monomeric llama VHH with BAP and His6; also called sdAb03) VHH: EVQLVESGGGLVQPGGSLRLSCATSEFTLDYYAIGWFRQAPGKEREGVSCISSSGGTTNYADSVKGRFTISSDNAKNTVSLQMNSLRPEDTAVYYCAAARVSAYYLGNYGCLNAEYGYWGQGTQVTVSS",27,550,26.9,0.0605,2.25e+06,550,,,,
"sdABP05 (VHH with BAP and His6 tags) (VHH, biotin on the Biotinylation Acceptor Peptide in the flow cytometry and immunoprecipitation assays, Monomeric llama VHH with BAP and His6; also called sdAb05) VHH: EVQLVESGGGLVQPGGSLRLSCAASGFTFSTYAMTWVRKAPGKGFEWISSIDSGGGVTLYADSVKGRFTISKDNAKNTLYLQMNNLKPDDTAVYYCVKNYGSTSLQSRGQGTQVTVSS",10.6,5.3,,,,5.3,12.8,0.0276,2.15e+06,

# Further molecules by falling Kd [2], results first:
Kd [2] [nM],EC50 [3] [nM],Kd [4] [nM],koff [4] [s⁻¹],kon [4] [M⁻¹ s⁻¹],EC50 [5] [nM],Kd [6] [nM],koff [6] [s⁻¹],kon [6] [M⁻¹ s⁻¹],Molecule,geometric mean fluorescence intensity (number above the histogram) [1]
6.32,0.96,5.91,0.00103,175000,0.96,,,,"sdABP06 (VHH with BAP and His6 tags) (VHH, biotin on the Biotinylation Acceptor Peptide in the flow cytometry and immunoprecipitation assays, Monomeric llama VHH with BAP and His6; also called sdAb06) VHH: EVQLVDSGGGLVQPGGSLRLSCAASGFTFSNYDMSWVRQGPGKGPEWVSIISYVGGLTRYSDSVKGRFTISRDNAKNTLYLQMNSLNTEDTALYYCARVKSMHPTSTTGEYDYRGRGTQVTVSS",
5.09,15,5.05,0.00835,1.65e+06,15,,,,"sdABP07 (VHH with BAP and His6 tags) (VHH, biotin on the Biotinylation Acceptor Peptide in the flow cytometry and immunoprecipitation assays, Monomeric llama VHH with BAP and His6; also called sdAb07) VHH: EVQLVESGGGLVEYGGSLRLSCAASESTLDNYAIAWFRQAPGKEREVVSCVGKSGGRSDYADSVKGRFTISRDNAKNTVYLQMNSLKPEDTAVYSCAARRVWFGGCVLGTSQGQYDYWGQGTQVTVSS",
